Measurements from patent US20130281671.

B1: soluble form of yeast Kex2 (amino acids 1-675) (protein)
chain: LVSSQQIPLKDHTSRQYFAVESNETLSRLEEMHPNWKYEHDVRGLPNHYVFSKELLKLGKRSSLEELQGDNNDHILSVHDLFPRNDLFKRLPVPAPPMDSSLLPVKEAEDKLSINDPLFERQWHLVNPSFPGSDINVLDLWYNNITGAGVVAAIVDDGLDYENEDLKDNFCAEGSWDFNDNTNLPKPRLSDDYHGTRCAGEIAAKKGNNFCGVGVGYNAKISGIRILSGDITTEDEAASLIYGLDVNDIYSCSWGPADDGRHLQGPSDLVKKALVKGVTEGRDSKGAIYVFASGNGGTRGDNCNYDGYTNSIYSITIGAIDHKDLHPPYSEGCSAVMAVTYSSGSGEYIHSSDINGRCSNSHGGTSAAAPLAAGVYTLLLEANPNLTWRDVQYLSILSAVGLEKNADGDWRDSAMGKKYSHRYGFGKIDAHKLIEMSKTWENVNAQTWFYLPTLYVSQSTNSTEETLESVITISEKSLQDANFKRIEHVTVTVDIDTEIRGTTTVDLISPAGIISNLGVVRPRDVSSEGFKDWTFMSVAHWGENGVGDWKIKVKTTENGHRIDFHSWRLKLFGESIDSSKTETFVFGNDKEEVEPAATESTVSQYSASSTSISISATSTSSISIGVETSAIPQTTTASTDPDSDPNTPKKLSSPRQ
B2: soluble form of human PC7 (amino acids 1-663) (protein)
chain: LAGTGGPDGQGTGGPSWAVHLESLEGDGEEETLEQQADALAQAAGLVNAGRIGELQGHYLFVQPAGHRPALEVEAIRQQVEAVLAGHEAVRWHSEQRLLRRAKRSVHFNDPKYPQQWHLNNRRSPGRDINVTGVWERNVTGRGVTVVVVDDGVEHTIQDIAPNYSPEGSYDLNSNDPDPMPHPDVENGNHHGTRCAGEIAAVPNNSFCAVGVAYGSRIAGIRVLDGPLTDSMEAVAFNKHYQINDIYSCSWGPDDDGKTVDGPHQLGKAALQHGVIAGRQGFGSIFVVASGNGGQHNDNCNYDGYANSIYTVTIGAVDEEGRMPFYAEECASMLAVTFSGGDKMLRSIVTTDWDLQKGTGCTEGHTGTSAAAPLAAGMIALMLQVRPCLTWRDVQHIIVFTATRYEDRRAEWVTNEAGFSHSHQHGFGLLNAWRLVNAAKIWTSVPYLASYVSPVLKENKAIPQSPRSLEVLWNVSRMDLEMSGLKTLEHVAVTVSITHPRRGSLELKLFCPSGMMSLIGAPRSMDSDPNGFNDWTFSTVRCWGERARGTYRLVIRDVGDESFQVGILRQWQLTLYGSVWSAVDIRDRQRLLESAMSGKYLHDDFALPCPPGLKIPEEDGYTITPN
B3: human PC5 (proprotein convertase subtilisin/kexin type 5), expressed from pSYN-PC5-003 (protein)
chain: RVYTNHWAVKIAGGFPEANRIASKYGFINIGQIGALKDYYHFYHSRTIKRSVISSRGTHSFISMEPKVEWIQQQVVKKRTKRDYDFSRAQSTYFNDPKWPSMWYMHCSDNTHPCQSDMNIEGAWKRGYTGKNIVVTILDDGIERTHPDLMQNYDALASCDVNGNDLDPMPRYDASNENKHGTRCAGEVAAAANNSHCTVGIAFNAKIGGVRMLDGDVTDMVEAKSVSFNPQHVHIYSASWGPDDDGKTVDGPAPLTRQAFENGVRMGRRGLGSVFVWASGNGGRSKDHCSCDGYTNSIYTISISSTAESGKKPWYLEECSSTLATTYSSGESYDKKIITTDLRQRCTDNHTGTSASAPMAAGIIALALEANPFLTWRDVQHVIVRTSRAGHLNANDWKTNAAGFKVSHLYGFGLMDAEAMVMEAEKWTTVPRQHVCVESTDRQIKTIRPNSAVRSIYKASGCSDNPNRHVNYLEHVVVRITITHPRRGDLAIYLTSPSGTRSQLLANRLFDHSMEGFKNWEFMTIHCWGERAAGDWVLEVYDTPSQLRNFKTPGKLKEWSLVLYGTSVQPYSPTNEFPKVERFRYSRVEDPTDDYGTEDYAGPCDPECSEVGCDGPGPDHCNDCLHYYYKLKNNTRICVSSCPPGHYHADKKRCRKCAPNCESCFGSHGDQCMSCKYGYFLNEETNSCVTHCPDGSYQDTKKNLCRKCSENCKTCTEFHNCTECRDGLSLQGSRCSVSCEDGRYFNGQDCQPCHRFCATCAGAGADGCINCTEGYFMEDGRCVQSCSISYYFDHSSENGYKSCKKCDISCLTCNGPGFKNCTSCPSGYLLDLGMCQMGAICKDATEESWAEGGFCMLVKKNNLCQRKVLQQLCCKTCTFQG

Biological target: rFVIIIBDD-Fc-Fc (B-domain deleted Factor VIII-Fc fused to a second Fc through a (GGGGS)4 linker; expressed from pSYN-FVIII-041)
Sequence (chain, as listed by the source, stated change not applied): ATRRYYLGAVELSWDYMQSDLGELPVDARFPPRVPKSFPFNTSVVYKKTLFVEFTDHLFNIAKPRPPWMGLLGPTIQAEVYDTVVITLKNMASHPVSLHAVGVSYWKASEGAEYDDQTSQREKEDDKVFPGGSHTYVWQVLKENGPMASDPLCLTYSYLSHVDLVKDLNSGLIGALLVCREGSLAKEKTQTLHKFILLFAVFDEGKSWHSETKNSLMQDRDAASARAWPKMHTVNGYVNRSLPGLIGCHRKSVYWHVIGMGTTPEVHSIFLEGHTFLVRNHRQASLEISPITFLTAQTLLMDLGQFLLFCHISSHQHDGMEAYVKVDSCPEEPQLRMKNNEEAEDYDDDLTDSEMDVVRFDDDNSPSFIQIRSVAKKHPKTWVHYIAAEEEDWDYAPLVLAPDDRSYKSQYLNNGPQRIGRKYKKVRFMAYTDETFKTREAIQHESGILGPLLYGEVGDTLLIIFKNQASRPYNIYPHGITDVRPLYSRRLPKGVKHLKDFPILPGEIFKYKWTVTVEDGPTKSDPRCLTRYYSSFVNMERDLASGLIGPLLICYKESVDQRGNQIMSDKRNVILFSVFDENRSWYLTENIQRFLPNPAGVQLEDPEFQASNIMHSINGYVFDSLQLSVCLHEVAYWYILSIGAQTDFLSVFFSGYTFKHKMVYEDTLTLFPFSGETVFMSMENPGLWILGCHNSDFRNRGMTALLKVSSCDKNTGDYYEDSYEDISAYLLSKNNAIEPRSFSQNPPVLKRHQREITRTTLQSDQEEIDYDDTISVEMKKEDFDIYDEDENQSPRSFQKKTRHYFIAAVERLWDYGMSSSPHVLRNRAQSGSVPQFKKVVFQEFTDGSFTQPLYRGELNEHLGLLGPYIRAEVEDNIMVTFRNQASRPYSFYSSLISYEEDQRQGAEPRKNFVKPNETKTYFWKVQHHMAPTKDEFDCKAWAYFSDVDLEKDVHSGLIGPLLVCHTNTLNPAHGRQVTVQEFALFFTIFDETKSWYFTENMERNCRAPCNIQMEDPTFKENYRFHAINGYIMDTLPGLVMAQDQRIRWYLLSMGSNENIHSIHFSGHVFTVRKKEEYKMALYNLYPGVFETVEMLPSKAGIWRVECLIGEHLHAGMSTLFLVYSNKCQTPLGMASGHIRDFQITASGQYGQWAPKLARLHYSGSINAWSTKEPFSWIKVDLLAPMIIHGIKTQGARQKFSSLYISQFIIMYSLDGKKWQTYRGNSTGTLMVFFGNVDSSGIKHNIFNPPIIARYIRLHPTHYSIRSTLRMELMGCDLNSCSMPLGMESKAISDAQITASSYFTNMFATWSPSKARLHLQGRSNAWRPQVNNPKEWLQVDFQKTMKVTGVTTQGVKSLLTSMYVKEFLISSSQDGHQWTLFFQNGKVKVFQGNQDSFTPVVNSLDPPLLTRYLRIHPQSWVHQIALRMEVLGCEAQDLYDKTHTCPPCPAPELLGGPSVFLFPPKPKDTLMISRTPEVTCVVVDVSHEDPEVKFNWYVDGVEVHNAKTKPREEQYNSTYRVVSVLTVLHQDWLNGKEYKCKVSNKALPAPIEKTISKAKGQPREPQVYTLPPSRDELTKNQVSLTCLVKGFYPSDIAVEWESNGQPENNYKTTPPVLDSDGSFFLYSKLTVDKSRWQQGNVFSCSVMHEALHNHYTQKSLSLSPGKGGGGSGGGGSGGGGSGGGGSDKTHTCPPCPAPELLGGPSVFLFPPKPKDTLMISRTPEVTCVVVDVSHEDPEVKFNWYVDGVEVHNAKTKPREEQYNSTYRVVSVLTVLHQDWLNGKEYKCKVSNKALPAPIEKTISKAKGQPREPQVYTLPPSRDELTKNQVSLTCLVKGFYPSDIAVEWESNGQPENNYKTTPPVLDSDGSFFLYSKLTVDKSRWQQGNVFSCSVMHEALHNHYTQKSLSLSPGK

Row | Protein | nonprocessed FVIIIFc on SDS-PAGE (SYPRO Ruby and Coomassie staining)
1 | B1 | Kex2, PC7, PACE, and PC5 decrease nonprocessed Factor VIII
2 | B2 | Kex2, PC7, PACE, and PC5 decrease nonprocessed Factor VIII
3 | B3 | Kex2, PC7, PACE, and PC5 decrease nonprocessed Factor VIII
